According to patent CN110357960A (GUANGZHOU AISIMAI BIOMEDICAL TECH CO LTD, dated 2019):

B1: 抗Her2×抗CD3双特异性抗体MutC (bispecific antibody, human IgG1, kappa)
heavy 1: EVQLVESGGGLVQPGGSLRLSCAASGFTFNTYAMNWVRQAPGKGLEWVARIRSKYNNYATYYADSVKDRFTISRDDSKNSLYLQMNSLKTEDTAVYYCARHGNFGNSYVSWFAYWGQGTLVTVSSISSASTKGPSVFPLAPSSKSTSGGTAALGCLVKDYFPEPVTVSWNSGALTSGVHTFPAVLQSSGLYSLSSVVTVPSSSLGTQTYICNVNHKPSNTKVDKKVEPKSCDKTHTCPPCPAPELLGGPSVFLFPPKPKDTLMISRTPEVTCVVVDVSHEDPEVKFNWYVDGVEVHNAKTKPREEQYNSTYRVVSVLTVLHQDWLNGKEYKCKVSNKALPAPIEKTISKAKGQPREPQVYTLPPSREEMTKNQVSLTCLVKGFYPSDIAVEWESNGQPENNYKTTKKKLDSDGSFFLYSKLTVDKSRWQQGNVFSCSVMHEALHNHYTQKSLSLSPGK
light 1: QTVVTQEPSLTVSPGGTVTLTCGSSTGAVTTSNYANWVQEKPGQAPRGLIGGTNKRAPWTPARFSGSLLGGKAALTITGAQAEDEADYYCALWYSNLWVFGGGTKLTVLGKLVTMEIKRTVAAPSVFIFPPSDEQLKSGTASVVCLLNNFYPREAKVQWKVDNALQSGNSQESVTEQDSKDSTYSLSSTLTLSKADYEKHKVYTCEVTHQGLSSPVTKSFNRGEC
heavy 2: not shown
light 2: DIQMTQSPSSLSASVGDRVTITCRASQDVNTAVAWYQQKPGKAPKLLIYSASFLYSGVPSRFSGSRSGTDFTLTISSLQPEDFATYYCQQHYTTPPTFGQGTKLVTMEIKRTVAAPSVFICPPSDEQLKSGTASVVCLLNNFYPREAKVQWKVDNALQSGNSQESVTEQDSKDSTYSLSSTLTLSKADYEKHKVYTCEVTHQGLSSPVTKSFNRGES
B2: 抗Her2×抗CD3双特异性抗体MutC+ER (bispecific antibody)
chain 1: EVQLVESGGGLVQPGGSLRLSCAASGFTFNTYAMNWVRQAPGKGLEWVARIRSKYNNYATYYADSVKDRFTISRDDSKNSLYLQMNSLKTEDTAVYYCARHGNFGNSYVSWFAYWGQGTLVTVSSISSASTKGPSVFPLAPSSKSTSGGTAALGCLVKDYFPEPVTVSWNSGALTSGVHTFPAVLQSSGLYSLSSVVTVPSSSLGTQTYICNVNHKPSNTKVDKKVEPESCDKTHTCPPCPAPELLGGPSVFLFPPKPKDTLMISRTPEVTCVVVDVSHEDPEVKFNWYVDGVEVHNAKTKPREEQYNSTYRVVSVLTVLHQDWLNGKEYKCKVSNKALPAPIEKTISKAKGQPREPQVYTLPPSREEMTKNQVSLTCLVKGFYPSDIAVEWESNGQPENNYKTTKKKLDSDGSFFLYSKLTVDKSRWQQGNVFSCSVMHEALHNHYTQKSLSLSPGK
chain 2: QTVVTQEPSLTVSPGGTVTLTCGSSTGAVTTSNYANWVQEKPGQAPRGLIGGTNKRAPWTPARFSGSLLGGKAALTITGAQAEDEADYYCALWYSNLWVFGGGTKLTVLGKLVTMEIKRTVAAPSVFIFPPSDEQLKSGTASVVCLLNNFYPREAKVQWKVDNALQSGNSQESVTEQDSKDSTYSLSSTLTLSKADYEKHKVYTCEVTHQGLSSPVTKSFNRGRC
chain 3: not shown
chain 4: DIQMTQSPSSLSASVGDRVTITCRASQDVNTAVAWYQQKPGKAPKLLIYSASFLYSGVPSRFSGSRSGTDFTLTISSLQPEDFATYYCQQHYTTPPTFGQGTKLVTMEIKRTVAAPSVFICPPSDEQLKSGTASVVCLLNNFYPREAKVQWKVDNALQSGNSQESVTEQDSKDSTYSLSSTLTLSKADYEKHKVYTCEVTHQGLSSPVTKSFNRGES
B3: 抗Her2×抗CD3双特异性抗体MutC-ER (bispecific antibody, human IgG1, kappa)
heavy 1: EVQLVESGGGLVQPGGSLRLSCAASGFTFNTYAMNWVRQAPGKGLEWVARIRSKYNNYATYYADSVKDRFTISRDDSKNSLYLQMNSLKTEDTAVYYCARHGNFGNSYVSWFAYWGQGTLVTVSSISSASTKGPSVFPLAPSSKSTSGGTAALGCLVKDYFPEPVTVSWNSGALTSGVHTFPAVLQSSGLYSLSSVVTVPSSSLGTQTYICNVNHKPSNTKVDKKVEPKSCDKTHTCPPCPAPELLGGPSVFLFPPKPKDTLMISRTPEVTCVVVDVSHEDPEVKFNWYVDGVEVHNAKTKPREEQYNSTYRVVSVLTVLHQDWLNGKEYKCKVSNKALPAPIEKTISKAKGQPREPQVYTLPPSREEMTKNQVSLTCLVKGFYPSDIAVEWESNGQPENNYKTTKKKLDSDGSFFLYSKLTVDKSRWQQGNVFSCSVMHEALHNHYTQKSLSLSPGK
light 1: QTVVTQEPSLTVSPGGTVTLTCGSSTGAVTTSNYANWVQEKPGQAPRGLIGGTNKRAPWTPARFSGSLLGGKAALTITGAQAEDEADYYCALWYSNLWVFGGGTKLTVLGKLVTMEIKRTVAAPSVFIFPPSDEQLKSGTASVVCLLNNFYPREAKVQWKVDNALQSGNSQESVTEQDSKDSTYSLSSTLTLSKADYEKHKVYTCEVTHQGLSSPVTKSFNRGEC
heavy 2: not shown
light 2: DIQMTQSPSSLSASVGDRVTITCRASQDVNTAVAWYQQKPGKAPKLLIYSASFLYSGVPSRFSGSRSGTDFTLTISSLQPEDFATYYCQQHYTTPPTFGQGTKLVTMEIKRTVAAPSVFICPPSDEQLKSGTASVVCLLNNFYPREAKVQWKVDNALQSGNSQESVTEQDSKDSTYSLSSTLTLSKADYEKHKVYTCEVTHQGLSSPVTKSFNRGRS

Each binder was assayed against 肿瘤细胞SKBR3表面的Her2抗原 (UniProt P04626 23-1255, limits assumed) (assay: cell-based or functional assay).

In order of rising “对SKBR3细胞的杀伤 EC50浓度 (CTL, LDH release, PBMC effector cells)” value:
1. B3  0.034 ng/mL
2. B1  0.045 ng/mL
3. B2  0.055 ng/mL
